In patent publication US20250084169A1 (published 2025) one finds Kd data, which are given here for two molecules.

The Kd is the free concentration of one partner at which half of the binding sites on the other are occupied at equilibrium, for simple one-to-one binding.

One test has as its target T1, CD20 Lipoparticles (Homo sapiens (Human), UniProt P11836 1-297).
T1 sequence: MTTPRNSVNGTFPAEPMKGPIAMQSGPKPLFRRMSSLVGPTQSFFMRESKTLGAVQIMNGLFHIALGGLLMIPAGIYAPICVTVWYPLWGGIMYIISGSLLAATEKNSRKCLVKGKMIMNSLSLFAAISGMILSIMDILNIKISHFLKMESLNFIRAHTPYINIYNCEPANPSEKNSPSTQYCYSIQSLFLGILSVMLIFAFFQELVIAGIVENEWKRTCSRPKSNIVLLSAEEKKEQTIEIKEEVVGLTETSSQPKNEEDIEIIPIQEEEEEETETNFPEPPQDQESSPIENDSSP

Test [1] has as its target T2, recombinant human Fc gamma RIIa (CD32a) 131H (human, UniProt P12318 36-218).
T2 sequence (looked up): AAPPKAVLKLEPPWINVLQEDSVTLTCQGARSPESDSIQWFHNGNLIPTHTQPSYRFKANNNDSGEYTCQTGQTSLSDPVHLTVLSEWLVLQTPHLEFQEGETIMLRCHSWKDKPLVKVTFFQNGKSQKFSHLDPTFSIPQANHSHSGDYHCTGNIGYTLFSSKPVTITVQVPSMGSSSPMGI

Test [2] deals with recombinant human Fc gamma RI (CD64) (human, UniProt P12314 16-288).
Test [3] deals with T3, recombinant human Fc gamma RIIa (CD32a) 131R (human, UniProt P12318 36-218).
T3 sequence (looked up): T2 sequence (looked up) with H132R

Test [4] deals with recombinant human Fc gamma RIIIa (CD16a) 158F (human, UniProt P08637 17-208).
Test [5] has as its target recombinant human Fc gamma RIIIb (CD16b) (human, UniProt O75015 17-200).
Test [6] has as its target recombinant human Fc gamma RIIIa (CD16a) 158V (human, UniProt P08637 17-208).
Test [7] concerns the target T4, recombinant human Fc gamma RIIb/c (CD32b/c) (human, UniProt P31994 46-217).
T4 sequence (looked up): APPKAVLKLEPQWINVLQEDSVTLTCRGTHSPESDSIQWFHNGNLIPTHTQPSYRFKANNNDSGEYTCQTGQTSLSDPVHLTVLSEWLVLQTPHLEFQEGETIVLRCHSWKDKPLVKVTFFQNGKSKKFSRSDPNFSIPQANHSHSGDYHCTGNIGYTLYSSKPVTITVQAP

Substitutions are numbered along the chain they refer to.

Chain of recombinant human Fc gamma RIIIa (CD16a) 158F (P08637 17-208 limits assumed): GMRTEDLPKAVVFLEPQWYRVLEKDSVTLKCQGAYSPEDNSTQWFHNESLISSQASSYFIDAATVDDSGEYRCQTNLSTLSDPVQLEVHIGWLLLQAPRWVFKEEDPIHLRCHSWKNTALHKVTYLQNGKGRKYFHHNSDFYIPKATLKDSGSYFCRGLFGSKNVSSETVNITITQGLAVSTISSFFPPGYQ
Chain of recombinant human Fc gamma RIIIa (CD16a) 158V (P08637 17-208 F176V limits assumed): as the sequence (P08637 17-208 limits assumed) above, with F160V counted along it
Chain of recombinant human Fc gamma RI (CD64) (P12314 16-288 limits assumed): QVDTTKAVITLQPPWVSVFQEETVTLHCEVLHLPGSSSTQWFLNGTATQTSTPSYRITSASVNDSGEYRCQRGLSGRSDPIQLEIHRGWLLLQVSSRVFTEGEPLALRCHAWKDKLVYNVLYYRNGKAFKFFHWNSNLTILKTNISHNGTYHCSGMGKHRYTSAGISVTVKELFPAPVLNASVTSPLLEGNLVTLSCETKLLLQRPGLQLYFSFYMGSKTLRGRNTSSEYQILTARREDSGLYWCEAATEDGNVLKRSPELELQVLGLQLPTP
Chain of recombinant human Fc gamma RIIIb (CD16b) (O75015 17-200 limits assumed): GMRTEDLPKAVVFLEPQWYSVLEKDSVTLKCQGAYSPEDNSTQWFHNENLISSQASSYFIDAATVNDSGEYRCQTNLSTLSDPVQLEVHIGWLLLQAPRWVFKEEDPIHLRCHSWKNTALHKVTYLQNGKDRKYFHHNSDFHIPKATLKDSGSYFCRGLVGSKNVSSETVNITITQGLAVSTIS

B1: Rc66SIDE-P16-Rc66SIDE (antibody, human IgG1, kappa)
light: QIVLSQSPAILSASPGEKVTMTCRASSSVSYIHWFQQKPGSSPKPWIYATSNLASGVPVRFSGSGSGTSYSLTISRVEAEDAATYYCQQWTSNPPTFGGGTKLEIKRTVAAPSVFIFPPSDEQLKSGTASVVCLLNNFYPREAKVQWKVDNALQSGNSQESVTEQDSKDSTYSLSSTLTLSKADYEKHKVYACEVTHQGLSSPVTKSFNRGEC
heavy: QVQLQQPGAELVKPGASVKMSCKASGYTFTSYNMHWVKQTPGRGLEWIGAIYPGNGDTSYNQKFKGKATLTADKSSSTAYMQLSSLTSEDSAVYYCARSTYYGGDWYFNVWGAGTTVTVSAASTKGPSVFPLAPSSKSTSGGTAALGCLVKDYFPEPVTVSWNSGALTSGVHTFPAVLQSSGLYSLSSVVTVPSSSLGTQTYICNVNHKPSNTKVDKKAEPKSCDKTHTCPPCPAPELLGGPDVFLFPPKPKDTLMISRTPEVTCVVVDVSHEDPEVKFNWYVDGVEVHNAKTKPREEQYNSTYRVVSVLTVLHQDWLNGKEYKCKVSNKALPAPEEKTISKAKGQPREPQVYVLPPSRDELTKNQVSLLCLVKGFYPSDIAVEWESNGQPENNYLTWPPVLDSDGSFFLYSKLTVDKSRWQQGNVFSCSVMHEALHNHYTQKSLSLSPGK
chain: CPPCPAPELLGGPDVFLFPPKPKDTLMISRTPEVTCVVVDVSHEDPEVKFNWYVDGVEVHNAKTKPREEQYNSTYRVVSVLTVLHQDWLNGKEYKCKVSNKALPAPEEKTISKAKGQPREPQVYVYPPSRDELTKNQVSLTCLVKGFYPSDIAVEWESNGQPENNYKTTPPVLDSDGSFALVSKLTVDKSRWQQGNVFSCSVMHEALHNHYTQKSLSLSPGK
On to B1, for which the equilibrium dissociation constant (Kd) in the test with CD20 Lipoparticles is < 0.001 nM; in test [1], 0.808 nM; in test [2] it was < 0.001 nM; in test [3] it was 1.83 nM; in test [4], 2.71 nM; in test [5], < 0.001 nM. Moreover, the Kd in test [6] amounted to 0.257 nM; in test [7], 0.556 nM.

B2: Rc66SIDE-P28-Rc66SIDE (antibody, human IgG1, kappa)
light: B1 light
heavy: B1 heavy
chain: B1 chain
As to B2, the Kd in the test with CD20 Lipoparticles was < 0.001 nM; in test [1] it was 5.42 nM; in test [2], 1.14 nM; in test [3], 8.11 nM; in test [4], 6.62 nM; in test [5], 5.64 nM. In addition, the Kd in test [6] turned out to be 4.98 nM; in test [7], 7.28 nM.
